Like-named read-outs stand apart in the source and are kept apart here.

Here are results for two substances from EP4674868A1.

Assay [1] concerns the target human 4-1BB on the surface of HEK293 cells (HEK293-Hu4-1BB) (human) (UniProt Q07011). Put plainly: cell-based or functional assay.
The target is the same in assay [2]. Put plainly: cell-based or functional assay. The source holds these as a separate data set.
The target in assay [3] is human CD40 on the surface of HEK293 cells (HEK293-HuCD40) (human) (UniProt P25942). Nature of the assay: cell-based or functional assay.
The target is the same in assay [4]. Nature of the assay: cell-based or functional assay. The source holds these as a separate data set.
Assay [5] addresses human FAP on the surface of CHO-K1 cells (CHO-K1-HuFAP) (human) (UniProt Q12884). Nature of the assay: FACS, CHO-K1-HuFAP cells. In general terms: A flow cytometer gives signals particle by particle.
Assay [6] has the same target. Nature of the assay: FACS, CHO-K1-HuFAP cells. The source holds these as a separate data set.
Assay [7] has the same target. Nature of the assay: FACS, CHO-K1-HuFAP cells. The source holds these as a separate data set.
The target of assay [8] is human CD40 on the surface of HEK293 cells (HEK293-HuCD40) (human) (UniProt P25942). Nature of the assay: FACS, HEK293-HuCD40 cells.
The target is the same in assay [9]. Put plainly: FACS, HEK293-HuCD40 cells. The source holds these as a separate data set.
For assay [10], the target named is human 4-1BB on the surface of HEK293 cells (HEK293-Hu4-1BB) (human) (UniProt Q07011). Put plainly: FACS, HEK293-Hu4-1BB cells.
The target is the same in assay [11]. Put plainly: FACS, HEK293-Hu4-1BB cells. This is another data set of the same source.
The target is the same in assay [12]. Nature of the assay: FACS, HEK293-Hu4-1BB cells. This is another data set of the same source.
Assay [13] has the same target. Put plainly: FACS, HEK293-Hu4-1BB cells. This is another data set of the same source.

For the substance IgG1 isotype control (antibody), the 4-1BB/NF-κB luciferase reporter, CD40-crosslinked, Fold change in Emax in assay [1] worked out at 1.06 fold; in assay [2], 1.05 fold. The 4-1BB/NF-κB luciferase reporter, FAP-crosslinked, Fold change in Emax in assay [1] was 1.04 fold; in assay [2], 1.08 fold. Also, the 4-1BB/NF-κB luciferase reporter, uncrosslinked, Fold change in Emax came out at 1.05 fold in assay [1] and 1.1 fold in [2]. Further, the CD40/NF-κB reporter (HEK-Blue CD40L), 4-1BB-crosslinked, Fold change in Emax in assay [3] was found to be 0.99 fold. Further, in [3], the CD40/NF-κB reporter (HEK-Blue CD40L), FAP-crosslinked, Fold change in Emax came to 0.99 fold. In addition, the CD40/NF-κB reporter (HEK-Blue CD40L), uncrosslinked, Fold change in Emax came out at 1 fold in assay [3] and 0.99 fold in assay [4]. Besides, the Maximum fluorescence value in assay [5] amounted to 63; in assay [6], 62; in assay [7], 64; in assay [8], 61; in assay [9] it was 62; in assay [10], 67. The Maximum fluorescence value worked out at 69 in [11], 63 in [12] and 65 in assay [13].
As to “RO7300490 (2302(2+1)PG), FAP/CD40 bispecific antibody molecule, control”, in assay [2], the 4-1BB/NF-κB luciferase reporter, CD40-crosslinked, Fold change in Emax was determined as 1.06 fold; the 4-1BB/NF-κB luciferase reporter, FAP-crosslinked, Fold change in Emax was 1.02 fold; the 4-1BB/NF-κB luciferase reporter, uncrosslinked, Fold change in Emax came to 1.01 fold. In assay [13], this substance registered a Maximum fluorescence value of 1790.
